Source: paper PMC9253517 (The Journal of Experimental Medicine, 2022)

Assays:
[1] = target: T1, SARS-CoV-2 Wuhan-Hu-1 RBD (SARS-CoV-2, Wuhan-Hu-1 (GenBank …, UniProt P0DTC2)); assay: BLI; details: both partners purified
[2] = target: T1, SARS-CoV-2 Wuhan-Hu-1 RBD; assay: cell-based or functional assay

B1: JR081 (antibody, V domains shown)
VH: QVQLVQSGAEVKKPGASVKVSCKASGYIFTAYYMHWVRQAPGQGLEWMGWINPMSGATNYAQRFQGRVTMTRVTMTRDTSITTAYMELSRLRSDDTAVYYCARVNHIVGVTSSDPVYGMDVWGQGTTVTVSS
VL: QSALTQPASVSGSPGQSITISCTGTSSDVGGYKYVSWYQQHPGKAPKLMIYEVSNRPSGVSSRFSGSKSGYTASLTISGLQAEDEADYYCSSYTNSPTLFYVFGTGTKVTVL
In the case of B1, the binding result [1] is reported as “binds” and the “neutralisation IC50, Wuhan-Hu-1 pseudovirus” value (“neutralisation IC50” below) [2] is reported as 0.00347 µg/mL.

B2: JR317 (antibody, V domains shown)
VH: QVQLVESGGGVVQPGKSLRLSCAASGFTFSSYGMHWVRQAPGKGLEWVAVIWYDGSNKYYADSVKGRFTISRDNSKSTLYVQMNSLRAEDTAVYYCARVRTIFRPLDYMDVWGKGTTVTVSS
VL: SYELTQPPSVSVAPGQTARITCGGNNIGSKSVHWYQQKPGQAPVLVVYDDSARPSGIPERFSGSNSGNAATLTISRVEAGDEADYYCQVWDRDYSSDHLWVFGGGTKLTVL
For B2, the binding result [1] was “binds” and the “neutralisation IC50” value [2] was 0.0344 µg/mL.

B3: JR186 (antibody, V domains shown)
VH: EVQLLESGGGLIPPGGSLRLSCAASGFTFSSYAMSWVRQAPGKGLEWVSGISGSGTDTDEGDSVKGRFTISRDNSKNTLWLQIHTLRVEDTAIYYCAKASRGYVSNFDYFDRWGQGTLVTVSS
VL: SYELTQPPSVSVAPGETAKITCGGDNIGTKSVHWYLQKAGQAPVLVISDDSNRPSGIPERFSGSNSGNTATLTINRVEGGDEADYYCQVWTSFGAGTRVTVI
With B3 the binding result [1] was “binds” and the “neutralisation IC50” value [2] was 0.0742 µg/mL.

B4: JR235 (antibody, V domains shown)
VH: EVQLVESGGGLVQPGRSLRLSCAASGFTFDDYAMHWVRQAPGKGLEWVSGISWNSGRIDYADSVKGRFTISRDNAKNSLYLQMNSLRAEDTALYYCAKVSTVTTYLMGYFDLWGRGTLVTVSS
VL: EIVMTQSPATLSVSPGERATLSCRASQSVSSNLAWFQQKPGQAPRLLIYGASTRATGIPARFSGSGSGTEFILTISSLQSEDFAVYYCQLYSYWPPESSFGQGTKLEIK
In the case of B4, the binding result [1] is reported as “binds” and the “neutralisation IC50” value [2] is reported as greater than 1 µg/mL.

B5: JR202 (antibody, V domains shown)
VH: VQLVESGGGVVQPGRSLRLSCAASGFTFTTYTLHWVRQAPGKGLEWVAVISYDGNNKYYADSVKGRFTISRDDSKNTLYVQMNSLRAEDTAVYYCARSIGYYTGVDYWGQGTLVTVSS
VL: NFMLTQPHSVSESPGKTVTISCTGSSGSIAINYVQWYQQRPGSAPITVIYEDNQRPSGVPDRFSGSIDSSSNSASLTISGLKTEDEADYYCQTYHSSTWVFGGGTKLTVL
In the case of B5, the binding result [1] is reported as “binds” and the “neutralisation IC50” value [2] is reported as 0.00354 µg/mL.

B6: JR189 (antibody, V domains shown)
VH: EVQLVESGGGLIQPGGSLRLSCAASGFNVNSNYINWVRQAPGKGLEWVSVIYSSGKTYFADSVKGRFTISRDNSKNTLYLQMNILRAEDTAVYYCATTTTVTPIWGQGTLVTVSS
VL: DIQMTQSPSALSASVGDRVTFTCRASQDIRNYLGWYQQKPGEAPKLLVYAASSLQSGVPSRFSGSGSGTDFTLTISSLQPEDFATYYCLQDYNYPWTFGQGTKVEIK
With B6 the binding result [1] was “binds” and the “neutralisation IC50” value [2] was 0.0077 µg/mL.

B7: JR307 (antibody, V domains shown)
VH: EVQLVESGGGLVQPGGSLRLSCEVSGFTFSNYWMHWVRQAPGKGLVWVSRVDSDGNSTTYADSVNGRFTISRDNAKNTLYLQMKSLRAEDTAIYYCTRDCENCRHWYFDLWGRGTLVTVS
VL: SYELTQPPSVSVTPGQTARIACGGNNIGTKGVHWYQQRPGQAPVLVVYDDENRPSGIPERFSGSNSGDTATLIITWVEAGDEADYYCQVWHGLSDHPVFGGGTRLTVL
For B7, the binding result [1] was “binds” and the “neutralisation IC50” value [2] was greater than 1 µg/mL.

B8: JR052 (antibody, V domains shown)
VH: QVQLVQSGAEVKKPGASVKVSCEASGYTFTTYHMHWVRQAPGQGLEWMGIINPSRGSANYAQKFQGRVTMTRDTSTRTVYMELSSLRSEDTALYYCARDPNYYDSSGHKIEYFQHWGQGTLVTVSS
VL: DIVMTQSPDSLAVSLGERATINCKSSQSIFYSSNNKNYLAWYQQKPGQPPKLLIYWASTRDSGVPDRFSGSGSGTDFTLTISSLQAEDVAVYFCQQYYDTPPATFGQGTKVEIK
With B8 the binding result [1] was “binds” and the “neutralisation IC50” value [2] was 0.0239 µg/mL.

B9: JR054 (antibody, V domains shown)
VH: QLQLQESGPRLMKPSETLSLTCSVSGGSISRSHYYWGWIRQPPGKGLEWIGSIYYNGSTYYNPSLRSRVTISVDTTKNQFSLKLSSVTAADTAEYYCARPGPSYYDRSGYNRAEYFQHWGQGTLVTVSS
VL: IRMTQSPSSLSASVGDRVTITCQASQDISNYLNWYQQKPGKAPKLLIYDASNLETGVPPRFSGSGSGTDFTFTISSLQPEDFATYSCQQYDNLPLTFGGGTKVEIK
B9 was tested, and the binding result [1] was “binds” and the “neutralisation IC50” value [2] was 0.0513 µg/mL.

B10: JR162 (antibody, V domains shown)
VH: EVQLLESGGGLVQQGGSLRLSCAASGFTFSGHAMSWVRQAPGEGLEWVSGISDGGGSTYYADSVRGRFTISRDNSKNTLYLQMNSLRAEDTAVYYCARRGGYCTNTICYTRYYYMDVWGKGTTVTVSS
VL: DIQMTQSPSSVSASVGDRVTITCRSSQDISSWLAWYQQKPGKAPKLLIFAASSLQSGVPSRFSGSGSGTDFTLTISSLQPEDFATYYCQQANSFPLTFGGGTKVEI
In the case of B10, the binding result [1] is reported as “binds” and the “neutralisation IC50” value [2] is reported as 0.00455 µg/mL.

B11: JR316 (antibody, V domains shown)
VH: QVQLVQSGAEVKKPGSSVKVSCKASGGSFSTHGISWVRQAPGQGLEWMGGIIPISGRANYAQNFQGRVTITADESTKTAYMELSSLRSEDTAVYYCARDDRFCDTTKCYGLWFDPWGQGTLVTVSS
VL: DIQMTQSPSSLSASVGDRVTITCRASQSISTYLNWYQQKPGKAPKVLIYAASTLQSGVPSRFSGSGSGTDFTLTISSLQPEDFATYYCQQTYSSPRAFGQGTKVEIK
In the case of B11, the binding result [1] is reported as “binds” and the “neutralisation IC50” value [2] is reported as 0.0108 µg/mL.

B12: JR209 (antibody, V domains shown)
VH: EVQLLESGGGLVQPGQSLRLYCAASGFTFSSHGMSWVRQAPGKGLEWVSSISSSGGRTYDADSVKGRFTISRDNSENTVYLQMNSLRVADTAVYYCVKENGPHRWSGEVHGMDVWGQGTTVTVSS
VL: QSVLTQPPSVSGAPGQRVTISCTGSSSNIGTGYDVHWYQHLPGTAPKLLIYDNNNRPSGVPDRFSGSKSATSASLAITGLQAEDEGDYYCQSYDTSLSGLAFGGGTKLTVL
In the case of B12, the binding result [1] is reported as “binds” and the “neutralisation IC50” value [2] is reported as 0.0901 µg/mL.

B13: JR312 (antibody, V domains shown)
VH: QVQLVQSGAEVKKPGSSVKVSCKASGAKPSGVSFSSYAFNWVRRAPGQGLEWVGGIIPIFGPANYAQKFQGRVTITADESTSTAYMELSSLSSEDTAIYYCARERYCNSPDCYSWERGDFDVWGQGTMVTVSS
VL: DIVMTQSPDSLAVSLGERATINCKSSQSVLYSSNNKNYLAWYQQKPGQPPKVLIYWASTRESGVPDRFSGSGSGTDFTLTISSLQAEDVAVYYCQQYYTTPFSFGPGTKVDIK
With B13 the binding result [1] was “binds” and the “neutralisation IC50” value [2] was 0.0271 µg/mL.

B14: JR318 (antibody, V domains shown)
VH: QVQLVQSGAEVKSPGASVKVSCKASGYTFTSYDINWVRQATGQGLEWMGWMNPNSGNTDYAQKFQGRVTMTRDTSISTAYMELSSLRSEDTAIYYCARRSGYYNFGVGTRTNYYYYGMDVWGQGTTVTVSS
VL: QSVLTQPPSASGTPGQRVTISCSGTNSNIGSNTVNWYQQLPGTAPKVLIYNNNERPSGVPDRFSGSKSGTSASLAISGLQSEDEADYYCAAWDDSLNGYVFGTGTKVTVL
B14 was tested, and the binding result [1] was “binds” and the “neutralisation IC50” value [2] was 0.00652 µg/mL.

B15: JR099 (antibody, V domains shown)
VH: EVQLVESGGGLVQPGGSLRLSCAASGFTFSDYDMHWVRQVRGKGLEWLSIIGTAGDTYYPDSVKGRFTISRENAKNSLYLQMNSLRVGDTGVYYCARDRASTSGTDGMDVWGQGTTVTVSS
VL: DIQLTQSPSSLSASVGDRVTITCRASQSISRYLNWYQQRPGKAPKLLIYAAFTLESGVPSRFSGSGSGTDFTLTISSLQAEDFATYHCQQSYSTSALTFGGGTKVEIK
With B15 the binding result [1] was “binds” and the “neutralisation IC50” value [2] was 0.0463 µg/mL.

B16: JR311 (antibody, V domains shown)
VH: QVQLVQSGAEVKKPGASVKVSCKTSGYTFTNYFVHWVRQAPGQGLEWMGWINPNSGGTNYAQTFQAWVTMTRDTSINTAYMELSRLTSDDTAVYYCARDLSFSIVRGVMGYWGQGTLVTVSS
VL: not shown
B16 was tested, and the binding result [1] was “binds” and the “neutralisation IC50” value [2] was greater than 1 µg/mL.

B17: JR057 (antibody, V domains shown)
VH: VQLVESGGGVVQPGRSLRLSCAASGFTFSSYAMHWVRQAPGKGLEWVALISYDGNNKYYADSVKGRFTVSRDNSKNTLFLQMNSLRAEDTAVYYCARDNEVSAAFDFWGQGTMVTVSS
VL: EIVLTQSPGTLSLSPGERATLSCRASQSLSSTYLAWYQHKPGQAPRLLIYAASSRATDIPDRFSGSGSGTDFTLTISRLEPEDFAVYYCQQYGGSPMCSFGQGTKLEIK
With B17 the binding result [1] was “binds” and the “neutralisation IC50” value [2] was 0.0142 µg/mL.

B18: JR308 (antibody, V domains shown)
VH: QVQLVESGGGVVQPGRSLRLSCAASGFTFSSYGMHWVRQAPGKGLEWVAVISYDGSNKYYADSLKGRFTISRDNSKNTLYLQMNSLRAEDTAVYYCAKEGRGTYYYGSGSCPGGYWGQGTLVTVSS
VL: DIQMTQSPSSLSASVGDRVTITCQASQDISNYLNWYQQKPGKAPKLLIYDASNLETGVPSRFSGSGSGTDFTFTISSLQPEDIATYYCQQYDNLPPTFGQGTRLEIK
In the case of B18, the binding result [1] is reported as “binds” and the “neutralisation IC50” value [2] is reported as greater than 1 µg/mL.

B19: JR206 (antibody, V domains shown)
VH: EVQLVQSGAEVKKPGESLKISCKGSGFNFSRYWIGWVRQMPGKGLEWMGIIYLGDSDTTYSPSFQGQVTISADKSISTAYLQWSSLKASDTAMFYCATRSGYFYGYETWGQGTLVTVSS
VL: SYELTQPPSVSVAPGKTAKITCGGNNIGSKTVHWYQQRPGQAPVLVVYDNRDRPSGIPERFSGSNSGNTAALTISRVEAGDEADYYCQVWDSSSDHYVFGTGTKVTVL
With B19 the binding result [1] was “binds” and the “neutralisation IC50” value [2] was 0.137 µg/mL.

B20: JR062 (antibody, V domains shown)
VH: EVQLVESGGGLIQPGGSLRLSCAASGFSVSNNYMNWVRQAPGKGLEWLSVIYNAGTTYYAGSVKGRFTISKDNSKNTLYLQLNSLRPEDTAVYYCARGHTGVAALMTGAFDIWGQGTMVTVSS
VL: QSALTQPPSASGSPGQSVTISCTGTSSDVGGYDYVSWYQQYPGKAPKLMIYEVSKRPSGVPDRFSGSKSGNTASLTVSGLQAEDEADYYCSSYAGNNNWVFGGGTKLTVL
For B20, the binding result [1] was “binds” and the “neutralisation IC50” value [2] was 0.0029 µg/mL.

B21: JR070 (antibody, V domains shown)
VH: QLVQSGPEVKKPGTSVKVSCKASGFTFSSSAMQWVRQARGQGLEWIGWIVVGSGNTNYAQKFQERVTISRDMSTSTAYMEVSSLTSEDAAVYYCAAPNCSRTTCSDGFDIWGQGTMVTVSS
VL: EIVLTQSPGTLSLSPGERATLSCRASQSVRSSYLAWYQQKPGQAPRLLIYGASSRATGIPDRFSGSGSGTDFTVTISRLEPEDFAVYYCQQYGNSPWTFGQGTKVEIK
B21 was tested, and the binding result [1] was “binds” and the “neutralisation IC50” value [2] was 0.00193 µg/mL.
